Read-outs that look alike come from different tables or passages of the source.
T1: recombinant human IL6R-his (human, UniProt P08887 20-365)
T1 construct: In house made; the entry includes the C-terminal His tag; also called human IL6R-his protein
T1 sequence: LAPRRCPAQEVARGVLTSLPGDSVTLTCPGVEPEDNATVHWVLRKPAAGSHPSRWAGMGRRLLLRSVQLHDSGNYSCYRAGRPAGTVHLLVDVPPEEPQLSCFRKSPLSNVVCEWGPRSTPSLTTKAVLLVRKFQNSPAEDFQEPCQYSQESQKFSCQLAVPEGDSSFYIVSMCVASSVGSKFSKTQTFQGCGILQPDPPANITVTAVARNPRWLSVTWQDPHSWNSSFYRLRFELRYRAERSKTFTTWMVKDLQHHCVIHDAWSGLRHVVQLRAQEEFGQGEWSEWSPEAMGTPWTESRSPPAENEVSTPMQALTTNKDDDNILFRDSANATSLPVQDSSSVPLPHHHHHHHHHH


How the values were obtained:
human IL6R-Fc protein [1] = target: T2, human IL6R-Fc protein (human, biotin-labeled in the ELISAs (sites not given)); experiment: ligand blocking ELISA: antibody pre-incubated with biotin-labeled human IL6R-Fc, added to plate-coated human IL6 (blocked ligand: human IL6)
T2 construct: In house made; also called biotin-labeled human IL6R-Fc protein

[2] = target: T1, recombinant human IL6R-his; experiment: SPR Biacore; antibody captured by anti-human IgG on CM5, human IL6R-his at 100 nM
Procedure: (§1) Un-reacted moieties on the biosensor surface were blocked with ethanolamine. […] Then, serially diluted recombinant human IL6R-his (in house made, amino acid sequence set forth in SEQ ID NO: 44) or macaca IL6R-his protein (in house made, amino acid sequence set forth in SEQ ID NO: 45), starting at 100 nM with a 2-fold serial dilution in HBS-EP⁺ buffer (provided by Biacore), was flowed onto the chip at a flow rate of 30 μL/min. The antigen-antibody association kinetics was followed for 2 minutes and the dissociation kinetics was followed for 10 minutes. The association and dissociation curves were fit to a 1:1 Langmuir binding model using BIAcore evaluation software.
The recombinant human IL6R-his (amino acid sequence set forth in SEQ ID NO: 44) at the concentration of 100 nM instead of serially diluted recombinant human IL6R-his, was flowed onto the chip at a flow rate of 30 μL/min.

human IL6R-Fc protein [3] = target: T2, human IL6R-Fc protein; experiment: capture ELISA: antibody captured on anti-IgG F(ab')2 coated plate, then biotin-labeled human IL6R-Fc, streptavidin-HRP
Procedure: (§2) For the capture ELISA, 96-well micro plates were coated with 2 μg/ml AffiniPure Goat Anti-Mouse IgG, F(ab′)₂ fragment specific (Jackson ImmunoResearch Laboratories, Inc., Cat #115-005-072) in PBS, 100 μl/well, and incubated for 2 hours at 37° C. Plates were washed once with wash buffer (PBS+0.05% v/v Tween-20, PBST) and then blocked with 200 μl/well blocking buffer (5% w/v non-fatty milk in PBST) overnight at 4° C. […] Plates containing captured anti-IL6R antibodies were incubated with biotin-labeled human IL6R-Fc protein (prepared in house, SEQ ID NO: 43, 39.5 ng/ml in 2.5% w/v non-fatty milk in PBST, 100 μl/well) for 40 minutes at 37° C., washed 4 times, and incubated with streptavidin conjugated HRP (1:10000 dilution in PBST, Jackson ImmunoResearch Laboratories, Inc., Cat #016-030-084, 100 μl/well) for 40 minutes at 37° C. After a final wash, plates were incubated with 100 μl/well ELISA substrate TMB (InnoReagents, Cat #TMB-S-002). The reaction was stopped 3-10 minutes later at room temperature with 50 μl/well 1M H₂SO₄, and the absorbance of each well was read on a microplate reader using dual wavelength mode at 450 nm for TMB and 630 nm as the reference wavelength. Then the OD (450-630) values were plotted against antibody concentration. Data was analyzed using Graphpad Prism software and EC₅₀ values were reported.
(§3) For the capture ELISA, AffiniPure Goat Anti-Human IgG, F(ab′)₂ fragment specific (Jackson Immuno Research, Cat #109-005-097) was used instead of AffiniPure Goat Anti-Mouse IgG, F(ab′)₂ fragment specific, 100 μl/well.

human IL6R-Fc protein [4] = target: T2, human IL6R-Fc protein; experiment: benchmark blocking ELISA: antibody pre-incubated with biotin-labeled human IL6R-Fc, added to plate-coated Tocilizumab (competitor: Tocilizumab)
human IL6R-Fc protein [5] = target: T2, human IL6R-Fc protein; experiment: as above; remark: listed apart in the source
Target sequence in this assay (chain, as listed by the source limits assumed): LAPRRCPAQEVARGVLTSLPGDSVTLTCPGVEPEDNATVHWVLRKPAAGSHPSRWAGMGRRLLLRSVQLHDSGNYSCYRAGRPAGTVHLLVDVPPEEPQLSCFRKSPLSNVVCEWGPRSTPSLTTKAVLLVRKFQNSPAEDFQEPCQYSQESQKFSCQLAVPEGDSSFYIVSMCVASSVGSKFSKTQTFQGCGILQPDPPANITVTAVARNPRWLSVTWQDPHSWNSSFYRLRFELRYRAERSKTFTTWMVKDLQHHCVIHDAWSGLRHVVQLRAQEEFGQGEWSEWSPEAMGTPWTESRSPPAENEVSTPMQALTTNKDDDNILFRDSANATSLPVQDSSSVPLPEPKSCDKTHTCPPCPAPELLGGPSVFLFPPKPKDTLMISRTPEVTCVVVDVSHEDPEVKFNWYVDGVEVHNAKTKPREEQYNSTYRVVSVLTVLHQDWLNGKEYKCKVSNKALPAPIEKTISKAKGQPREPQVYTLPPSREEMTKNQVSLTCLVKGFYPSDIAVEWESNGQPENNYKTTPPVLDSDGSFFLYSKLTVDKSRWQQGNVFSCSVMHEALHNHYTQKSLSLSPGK

human IL6R-Fc protein [6] = target: T2, human IL6R-Fc protein; experiment: capture ELISA: antibody captured on anti-IgG F(ab')2 coated plate, then biotin-labeled human IL6R-Fc, streptavidin-HRP; remark: listed apart in the source
Procedure: as §2, §3
Target sequence in this assay (chain, as listed by the source limits assumed): as above

human IL6R-Fc protein [7] = target: T2, human IL6R-Fc protein; experiment: ligand blocking ELISA: antibody pre-incubated with biotin-labeled human IL6R-Fc, added to plate-coated human IL6 (blocked ligand: human IL6); remark: listed apart in the source
Target sequence in this assay (chain, as listed by the source limits assumed): as above

[8] = target: T1, recombinant human IL6R-his; experiment: SPR Biacore; antibody from diluted cell supernatant captured by anti-human IgG on CM5, human IL6R in flow
Procedure: as §1
Cell supernatants containing humanized antibodies were harvested after six days in shaking flasks and directly subjected to BIAcore test following the protocol described above with modifications.

Binder	Kd [8]	koff [8]	kon [8]	also measured
Chimeric 1H9 (antibody, human IgG1, kappa, V domains shown, Mouse variable regions on human IgG1 / human kappa constant regions; also called chimeric antibody 1H9) VH: QVQLQQPGAELVKPGASVKLSCKASGYTFTSYWMHWVKLRPGQGLEWIGEINPTNGRTNYYEKFKNRATLTADKSSSTAYMQLSSLTFEDSAVYFCAKFHYSRWYFDVWGTGTTVTVSS VL: DIVMTQSQKFMSTSVGDRVSITCKASQNVGTAVVWYQQKPGQSPKLLINPASNRYTGVPDRFTGSGSGTDFTLTISNMQSEDLADYFCQQYSSYPLTFGAGTKLELKR	–	–	–	IC50 (human IL6R-Fc protein [1]): 0.213 nM; Kd [2]: 0.915 nM; koff [2]: 0.000194 s⁻¹; EC50 (human IL6R-Fc protein [3]): 0.0897 nM; IC50 (human IL6R-Fc protein [4]): 0.338 nM
Chimeric 1B5 (antibody, human IgG1, kappa, V domains shown, Mouse variable regions on human IgG1 / human kappa constant regions; also called chimeric antibody 1B5) VH: QVQLQQPGAELVKPGASVKLSCKASGYTFTSYWMHWVKQRPGQGLEWIGEINPSNGRTNYNENFKSKATLTVDKSSSTAYMQLSSLTSEDSAVYYCARLNTHYVFDYWGQGTTLTVSS VL: EIVLTQSPTILAASPGEKITFTCSVSSSISSNYLHWYQQKPGFSPKLLIYRTSNLASGVPARFSGSGSGTSYSLTIGTMEAEDVATYYCQQGSGIPFTFGSGTKLEIKR	–	–	–	Kd [2]: 0.915 nM; koff [2]: 0.000194 s⁻¹; kon [2]: 212000 M⁻¹ s⁻¹; IC50 (human IL6R-Fc protein [5]): 0.317 nM; EC50 (human IL6R-Fc protein [6]): 0.101 nM; IC50 (human IL6R-Fc protein [7]): 0.299 nM
humanized antibody hu1H7-V6 (antibody, human IgG1, kappa, V domains shown, Human IgG1 / kappa) VH: QVQLVQSGAEVKKPGASVKVSCKASGYTFTNYWMHWVRQAPGQGLEWIGEINPTNGRTNYNENFKSKVTLTVDTSTSTVYMELSSLRSEDTAVYYCARLNTHYVFDSWGQGTLVTVSS VL: EIVLTQSPGTLSLSPGERATLSCSVSSSISSNYLHWYQQKPGLSPRLLISRTSTLASGIPARFSGSGSGTEYTLTISRMQSEDFAVYYCQQGSGIPFTFGQGTKLEIKR	0.584 nM	0.000195 s⁻¹	334000 M⁻¹ s⁻¹	–
humanized antibody hu1H7-V3 (antibody, human IgG1, kappa, V domains shown, Human IgG1 / kappa) VH: QVQLVQSGAEVKKPGASVKVSCKASGYTFTNYWMHWVRQAPGQGLEWIGEINPTNGRTNYNENFKSKVTMTVDTSTSTVYMELSSLRSEDTAVYYCARLNTHYVFDSWGQGTLVTVSS VL: EIVLTQSPGTLSLSPGERATLSCSVSSSISSNYLHWYQQKPGLSPRLLISRTSTLASGIPARFSGSGSGTEYTLTISRMQSEDFAVYYCQQGSGIPFTFGQGTKLEIKR	0.568 nM	0.000176 s⁻¹	311000 M⁻¹ s⁻¹	–
humanized antibody hu1H7-V1 (antibody, human IgG1, kappa, V domains shown, Human IgG1 / kappa; also called hu1H7-Vl) VH: QVQLVQSGAEVKKPGASVKVSCKASGYTFTNYWMHWVRQAPGQGLEWIGEINPTNGRTNYNENFKSKVTLTVDKSTSTAYMELSSLRSEDTAVYYCARLNTHYVFDSWGQGTLVTVSS VL: EIVLTQSPGTLSLSPGERATLSCSVSSSISSNYLHWYQQKPGLSPRLLISRTSTLASGIPARFSGSGSGTEYTLTISRMQSEDFAVYYCQQGSGIPFTFGQGTKLEIKR	0.669 nM	0.000173 s⁻¹	258000 M⁻¹ s⁻¹	–
humanized antibody hu1H7-V8 (antibody, human IgG1, kappa, V domains shown, Human IgG1 / kappa) VH: QVQLVQSGAEVKKPGASVKVSCKASGYTFTNYWMHWVRQAPGQGLEWIGEINPTNGRTNYNENFKSKVTLTRDTSTSTVYMELSSLRSEDTAVYYCARLNTHYVFDSWGQGTLVTVSS VL: EIVLTQSPGTLSLSPGERATLSCSVSSSISSNYLHWYQQKPGLSPRLLISRTSTLASGIPARFSGSGSGTEFTLTISRLQSEDFAVYYCQQGSGIPFTFGQGTKLEIKR	0.91 nM	0.000199 s⁻¹	218000 M⁻¹ s⁻¹	–
humanized antibody hu1H7-V1-2 (antibody, human IgG1, kappa, V domains shown, Human IgG1 / kappa; also called hu1H7-Vl-2) VH: QVQLVQSGAEVKKPGASVKVSCKASGYTFTNYWMHWVKQAPGQGLDWIGEINPTNGRTNYNENFKSKATLTVDKSTSTAYMELSSLRSEDTAVYYCARLNTHYVFDSWGQGTLVTVSS VL: EIVLTQSPGTLSLSPGERATLTCSVSSSISSNYLHWYQQKPGFSPRLLISRTSTLASGIPARFSGSGSGTSYSLTISRMQSEDFAVYYCQQGSGIPFTFGQGTKLEIKR	0.63 nM	0.000165 s⁻¹	262000 M⁻¹ s⁻¹	–
humanized antibody hu1H7-V12 (antibody, human IgG1, kappa, V domains shown, Human IgG1 / kappa) VH: QVQLVQSGAEVKKPGASVKVSCKASGYTFTNYWMHWVRQAPGQGLEWIGEINPTNGRTNYNENFKSKVTLTVDTSTSTVYMELSSLRSEDTAVYYCARLNTHYVFDSWGQGTLVTVSS VL: EIVLTQSPGTLSLSPGERATLSCSVSSSISSNYLHWYQQKPGLSPRLLISRTSTLASGIPARFSGSGSGTEFTLTISRLQSEDFAVYYCQQGSGIPFTFGQGTKLEIKR	0.744 nM	0.000207 s⁻¹	279000 M⁻¹ s⁻¹	–
humanized antibody hu1H7-V7 (antibody, human IgG1, kappa, V domains shown, Human IgG1 / kappa) VH: QVQLVQSGAEVKKPGASVKVSCKASGYTFTNYWMHWVRQAPGQGLEWIGEINPTNGRTNYNENFKSKVTLTVDKSTSTAYMELSSLRSEDTAVYYCARLNTHYVFDSWGQGTLVTVSS VL: EIVLTQSPGTLSLSPGERATLSCSVSSSISSNYLHWYQQKPGLSPRLLISRTSTLASGIPARFSGSGSGTEFTLTISRLQSEDFAVYYCQQGSGIPFTFGQGTKLEIKR	0.855 nM	0.000199 s⁻¹	233000 M⁻¹ s⁻¹	–
humanized antibody hu1H7-V9 (antibody, human IgG1, kappa, V domains shown, Human IgG1 / kappa) VH: QVQLVQSGAEVKKPGASVKVSCKASGYTFTNYWMHWVRQAPGQGLEWIGEINPTNGRTNYNENFKSKVTMTVDTSTSTVYMELSSLRSEDTAVYYCARLNTHYVFDSWGQGTLVTVSS VL: EIVLTQSPGTLSLSPGERATLSCSVSSSISSNYLHWYQQKPGLSPRLLISRTSTLASGIPARFSGSGSGTEFTLTISRLQSEDFAVYYCQQGSGIPFTFGQGTKLEIKR	1.05 nM	0.000222 s⁻¹	212000 M⁻¹ s⁻¹	–
humanized antibody hu1H7-V11 (antibody, human IgG1, kappa, V domains shown, Human IgG1 / kappa) VH: QVQLVQSGAEVKKPGASVKVSCKASGYTFTNYWMHWVRQAPGQGLEWIGEINPTNGRTNYNENFKSRVTLTVDTSTSTVYMELSSLRSEDTAVYYCARLNTHYVFDSWGQGTLVTVSS VL: EIVLTQSPGTLSLSPGERATLSCSVSSSISSNYLHWYQQKPGLSPRLLISRTSTLASGIPARFSGSGSGTEFTLTISRLQSEDFAVYYCQQGSGIPFTFGQGTKLEIKR	0.849 nM	0.000202 s⁻¹	238000 M⁻¹ s⁻¹	–
humanized antibody hu1H7-V2 (antibody, human IgG1, kappa, V domains shown, Human IgG1 / kappa) VH: QVQLVQSGAEVKKPGASVKVSCKASGYTFTNYWMHWVRQAPGQGLEWIGEINPTNGRTNYNENFKSKVTLTRDTSTSTVYMELSSLRSEDTAVYYCARLNTHYVFDSWGQGTLVTVSS VL: EIVLTQSPGTLSLSPGERATLSCSVSSSISSNYLHWYQQKPGLSPRLLISRTSTLASGIPARFSGSGSGTEYTLTISRMQSEDFAVYYCQQGSGIPFTFGQGTKLEIKR	0.733 nM	0.000197 s⁻¹	269000 M⁻¹ s⁻¹	–
